Data: article PMC3353549 (Developmental Cell, 2012)

B1: MBP-HJURP^1–80 (domain or fragment)
chain: MLGTLRAMEGEDVEDDQLLQKLRASRRRFQRRMQRLIEKYNQPFEDTPVVQMATLTYETPQGLRIWGGRLIKERNEGEIQ
B2: MBP-HJURP^1–80/W66A (domain or fragment)
chain: MLGTLRAMEGEDVEDDQLLQKLRASRRRFQRRMQRLIEKYNQPFEDTPVVQMATLTYETPQGLRIAGGRLIKERNEGEIQ
B3: MBP-HJURP^1–62 (domain or fragment)
chain: MLGTLRAMEGEDVEDDQLLQKLRASRRRFQRRMQRLIEKYNQPFEDTPVVQMATLTYETPQG

How the values were obtained:
Test in all cases: SEC
[1] = target: (CENP-A/H4)2 heterotetramer (human, UniProt P49450 1-140; P62805 1-103)
[2] = target: (CENP-A^S68Q/H4)2 (human, UniProt P49450 1-140; P62805 1-103, S68Q)
[3] = target: CENP-A^H115A/L128A/H4 heterodimer (human, UniProt P49450 1-140; P62805 1-103, H115A | L128A)
Sequence of CENP-A^H115A/L128A/H4 heterodimer (P49450 whole entry H115A/L128A, one chain of several): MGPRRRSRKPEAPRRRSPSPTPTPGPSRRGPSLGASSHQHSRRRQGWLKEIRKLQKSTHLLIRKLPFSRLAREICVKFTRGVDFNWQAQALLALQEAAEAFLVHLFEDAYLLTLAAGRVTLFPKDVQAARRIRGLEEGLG

Sequence of (CENP-A/H4)2 heterotetramer (P49450 whole entry, one chain of several): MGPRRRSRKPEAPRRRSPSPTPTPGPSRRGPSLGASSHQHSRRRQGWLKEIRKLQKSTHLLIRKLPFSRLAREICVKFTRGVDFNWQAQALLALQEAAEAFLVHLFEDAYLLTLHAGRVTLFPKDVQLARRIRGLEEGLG
Sequence of (CENP-A^S68Q/H4)2 (P49450 whole entry S68Q, one chain of several): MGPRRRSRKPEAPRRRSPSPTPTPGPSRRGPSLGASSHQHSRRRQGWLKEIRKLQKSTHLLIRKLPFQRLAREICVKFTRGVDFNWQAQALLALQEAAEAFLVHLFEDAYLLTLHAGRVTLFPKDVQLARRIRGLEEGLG

Binder	binding result [1]	binding result [2]	binding result [3]
B1	binds	binds	binds
B2	binds		
B3	binds		
